Experiment: yeast display, Sf9 membrane polyspecificity reagent, FACS + sequencing; frameworks hold sequencing errors
How it was run: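 After 36–48 hours of galactose induction, yeast (Saccharomyces cerevisiae BJ5465) displaying a synthetic nanobody library were stained at 4 °C for 1 hour with 10% biotinylated, detergent-solubilized Sf9 membrane reagent. Streptavidin microbeads enriched the stained cells before FACS sorting into low and high (top ~1%) gates on anti-HA and streptavidin fluorescence. Each clone's polyreactivity label reflects its gate of origin.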
In the case of “QVQLVESGGGLVQAGGSLRLSCAASGLIFTYYAMGWYRQAPGKERELVAGISSGTNTNYADSVKGRFTISRDNAKNTVYLQMISLKPEDTAVYYCAKTRGYQFVAYGYWGQGTQVTVSS”, the “polyreactivity (PSR sort gate)” value is reported as “low polyreactivity”.
With “QVQLVESGGGLVQAGGSLRLSCAASGLIFVHYDMGWYRQAPGKERELVAAISAGGGSTYYADSVKGRFTISRYNSKNTVYLQMNSLLPEDTAVYYCIARVVNYFRPRTGAREYDFWGQGTQGTVSS” the “polyreactivity (PSR sort gate)” value was “high polyreactivity”.
In the case of “QVQLVESGGGLVQAGGSLRLSCAASGLIFVINAMGCYRQAPGKERELVATISSGVSTNNADSVKGRFTISRDNAKNTVYLQMYSLKPEDTAVYYCNKGQTVSRGYRLYERFVYWGQGTQVTVSS”, the “polyreactivity (PSR sort gate)” value is reported as “low polyreactivity”.
In the case of “QVQLVESGGGLVQAGGSLRLSCAASGLIFVINAMGWYRQAPGTERELVATISSGVSTNYADSVKGRFTISRDNAKNTVYLQMNSLKPEDTAVYYCNKGQTVSRGYRLYERYVYWGQGTQVTVSS”, the “polyreactivity (PSR sort gate)” value is reported as “low polyreactivity”.
In the case of “QVQLVESGGGLVQAGGSLRLSCAASGLIFVRYAMGWYRQAPGKERELVATITWSGGTTYADSVKGRFTISRDNGKNTVYLQMNSLKPEDTEVYDCAVEWPAWTDSDYPVGGHAFGYWGQVTQVTVSS”, the “polyreactivity (PSR sort gate)” value is reported as “low polyreactivity”.
With “QVQLVESGGGLVQAGGSLRLSCAASGLIFVVYAMGWYRQAPGKERELVAAISRSGGRTYYADSVKGRFTISRDNAKNTVYLQMNSLKPEDTAVYYCAARRYSTTFGRLFDYWGQGTQVTVSS” the “polyreactivity (PSR sort gate)” value was “high polyreactivity”.
In the case of “QVQLVESGGGLVQAGGSLRLSCAASGLIFVVYTMGWYRQAPGKERELVAAITGRGGSTYADSVKGRFTISRDNAKNTVYLQMNSLKPEDNAVYYCNRADYYGYRFRVYDRLDYWGQGTQVTVSS”, the “polyreactivity (PSR sort gate)” value is reported as “low polyreactivity”.
For “QVQLVESGGGLVQAGGSLRLSCAASGLIFWGYTMGWYRQAPGKERELVAAISRSGGRTYYADSVKGRFTISRDNAKNTVYLQMNSLKPEDTAVYYCAARYYYWGQGTQVTVSS”, the “polyreactivity (PSR sort gate)” value was “high polyreactivity”.
For “QVQLVESGGGLVQAGGSLRLSCAASGLIFWLNAMGWYRQAPGKERELVAAISSSGGRTYYADSVKGRFTISRDNAKNTVYLQMNSLKPEDTAVYYCNRGQQGRGWWGYDYWGHGTQVTVSS”, the “polyreactivity (PSR sort gate)” value was “high polyreactivity”.
With “QVQLVESGGGLVQAGGSLRLSCAASGLIFWYNAMGWYRQAPGKEREFVAAITSDGGRTYYADSVKGRFTISRDNAKNTVYLQMNSLKPEDTAVYYCTARGYGYLGRKGGYSYGYYYWGQGTQVTVSS” the “polyreactivity (PSR sort gate)” value was “low polyreactivity”.
With “QVQLVESGGGLVQAGGSLRLSCAASGLIFWYYAMGWYRQAPGKERELVATISWSGGSTYYADSVKGRFTISRDNAKNTVYLQMNSLKPEDTAVYYCAAVGFRAYVARGYWYYYWGQGTQVTVSS” the “polyreactivity (PSR sort gate)” value was “high polyreactivity”.
With “QVQLVESGGGLVQAGGSLRLSCAASGLIFWYYTMGWYRQAPGKESELVAAITIGGSTYYADSVKGRFTISRDNAKNTVYLQMNSLKPEDTAVYYCNTRRGRSPGGRYEYDYWGQGTQVTVSS” the “polyreactivity (PSR sort gate)” value was “low polyreactivity”.
In the case of “QVQLVESGGGLVQAGGSLRLSCAASGLIFYDNMGWYRPAPGKERELVAAISSSGGSTSYADSVKGRFTISRDNAKNTVYLQMNSLKPEDTAVYYCAARLVYEWRRLDYFIAWDYWGQGTQVTVSS”, the “polyreactivity (PSR sort gate)” value is reported as “low polyreactivity”.
In the case of “QVQLVESGGGLVQAGGSLRLSCAASGLIFYDNMGWYRQAPGKERELLAAISSSGGSTSYADSVKGRFTISRDNAKITVSLQMNCLKPEDTGVYYCAADSYPAYLGFVGFDYWGQGTQVTVSS”, the “polyreactivity (PSR sort gate)” value is reported as “low polyreactivity”.
For “QVQLVESGGGLVQAGGSLRLSCAASGLIFYDNMGWYRQAPGKERELVAAISSSGGSTSYADSVKGRFTISRDNAKNTVYLQMNSLKPEDTAVYYCAADSYPAYLGFVGFDYWGQGTQVNVSS”, the “polyreactivity (PSR sort gate)” value was “low polyreactivity”.
For “QVQLVESGGGLVQAGGSLRLSCAASGLIFYGNAMGWYRQAPGKERELVADITGSSVRTYYADSVKGRFTISRDNAKNTDYLQMNSLKPEDTAVYYCAATYGYLYTGLSRYDYWGQGTQVTVSS”, the “polyreactivity (PSR sort gate)” value was “low polyreactivity”.
With “QVQLVESGGGLVQAGGSLRLSCAASGLIFYGYAMGWYRQAPGKERELVAAISSGGSTNYADSVKGRFTISRDNAKNTVYLQMNSLKPEDTAVYYCAAKPIFYRTILYYYWGQGTQVTVSS” the “polyreactivity (PSR sort gate)” value was “high polyreactivity”.
With “QVQLVESGGGLVQAGGSLRLSCAASGLIFYKYAKGWYRQAPGKERELVAAISRGDNTYYADSVKGRFTISRDNAKNTVYLQMNSLKPEDTAVYYCAAYRWIYQSQYQGYWLDYWGQGTQVTVSS” the “polyreactivity (PSR sort gate)” value was “high polyreactivity”.
For “QVQLVESGGGLVQAGGSLRLSCAASGLIFYKYAMGWYRQAPGKERELVAAIRWSGGSTYYADSVKGRFTISRDNAKNTVYLQMNSLKPEDTAVYYCAALSWNHQYEYWGQGTQVTVSS”, the “polyreactivity (PSR sort gate)” value was “high polyreactivity”.
For “QVQLVESGGGLVQAGGSLRLSCAASGLIFYLYAMGWYRQQPGKERELVARMSRGGSTNYADSVKGRFTISRDNAKNTVYLQLNSLKPEDTAVDYCAADWFVSLGEMYYWGQGTQGTVSS”, the “polyreactivity (PSR sort gate)” value was “low polyreactivity”.
In the case of “QVQLVESGGGLVQAGGSLRLSCAASGLIFYPYAMGWYRQAPGKERELVAGISSSGDSTYYADSVKGRFTISRDNAKNTVYLEMNSLKPEDTAVYYCNADGWYFEYWGQGTHVTVSS”, the “polyreactivity (PSR sort gate)” value is reported as “low polyreactivity”.
For “QVQLVESGGGLVQAGGSLRLSCAASGLIFYRYAMGWYRQAPGKERELVAAISSGGSTYYADSVKGRFTISRDNAKNTVYLQMNSLKPEDTAVYYCADRTRVSPQIHIYRAYGYWGQGTQVTVSS”, the “polyreactivity (PSR sort gate)” value was “high polyreactivity”.
With “QVQLVESGGGLVQAGGSLRLSCAASGLIFYRYAMGWYRQAPGKERELVAVISWIGCNTYYADSVKGRFTISRDNAKNTVYLQMNSLKPEDTAVYYCAVATGPVSYRRYYWGQGTQVTVSS” the “polyreactivity (PSR sort gate)” value was “high polyreactivity”.
With “QVQLVESGGGLVQAGGSLRLSCAASGLIFYSNAMGWYRQAPGKDRELVAAITTSGSSTYYADSVKGRFTISRDNAKNTVYIPMNSLKPEDTAVYYCATEWRSNYWGQGTQVTVSS” the “polyreactivity (PSR sort gate)” value was “low polyreactivity”.
In the case of “QVQLVESGGGLVQAGGSLRLSCAASGLIFYTYAMGWYRQAPGIERELVATISKRDGGTYYADSVKGRFTISRDNAKNTVYLQMNSLKPEDTAVYYCDAERSYSYWAYDYWGQGTQVTVSS”, the “polyreactivity (PSR sort gate)” value is reported as “high polyreactivity”.
For “QVQLVESGGGLVQAGGSLRLSCAASGLIFYVYAMGWYRQAPGKERELVAAISFRGTSTYADSVKGRFTISRDNAKNTVYFQMNSLKPEDTAVYYCAVTGFDVLWPSLGGELDYWGQGTQVTVSS”, the “polyreactivity (PSR sort gate)” value was “low polyreactivity”.
With “QVQLVESGGGLVQAGGSLRLSCAASGLIFYYNAMGWYRQAPGKERELVAAISSDGTTDYADSVKGRFTISRDNAKNTVYLQMNSLKPEDTAVYYCNADKAVKLSGYGRADYDYWGQGTQVTVSS” the “polyreactivity (PSR sort gate)” value was “low polyreactivity”.
With “QVQLVESGGGLVQAGGSLRLSCAASGLIFYYYAMGWYRQAPGKERELVAAITGSGGSTYYADSVKGRFTISRDNAKNTVYLQMNSLKPEDTAVYYCAADGIYTYEYWGQGTQVTVSS” the “polyreactivity (PSR sort gate)” value was “low polyreactivity”.
For “QVQLVESGGGLVQAGGSLRLSCAASGLIFYYYAMGWYRQAPGKERELVAAITTGGGTYYADSVKGRFTISRDNAKNTVYLQMNILKPEATAVFYCAVYYRSYWGYEYWGQGTQVTVSS”, the “polyreactivity (PSR sort gate)” value was “high polyreactivity”.
With “QVQLVESGGGLVQAGGSLRLSCAASGLIIKWYAMGWYRQAPGKERELVAAITRTGGSTYYADSVKGRFTISRDNAKNTVYLQMNSLKPEDTAVYYCADRPVYFRYIAYYDWTPSFDFWGQGTQVTVSS” the “polyreactivity (PSR sort gate)” value was “low polyreactivity”.
In the case of “QVQLVESGGGLVQAGGSLRLSCAASGLILANYAMGWYRQAPGKDRELVAAISSSGGSTYYADSVKGRFTISRDNAKNTVYLQMNSLKPEDTAVYYCAAYPLYRRRWTGDYWGQGTQVTVSS”, the “polyreactivity (PSR sort gate)” value is reported as “high polyreactivity”.

Reference: the nanobody polyreactivity screen of Harvey et al. (2022)
